Experimental findings from publication PMC2887963 (Nucleic Acids Research, 2010) are described below.

Series [1] deals with T1, (His)6-RcsB (Escherichia coli, UniProt P0DMC7 1-216).
T1 sequence: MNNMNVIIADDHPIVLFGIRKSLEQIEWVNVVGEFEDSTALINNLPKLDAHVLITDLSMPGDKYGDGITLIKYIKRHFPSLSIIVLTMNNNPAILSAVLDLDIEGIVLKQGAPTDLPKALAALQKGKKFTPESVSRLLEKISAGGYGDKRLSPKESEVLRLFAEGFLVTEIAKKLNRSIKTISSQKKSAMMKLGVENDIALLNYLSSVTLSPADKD
The experiment in a line: EMSA. Background: In EMSA bound probe runs differently from free probe, usually more slowly.

For series [2], the target named is T2, (His)6-RcsB (Escherichia coli, UniProt P0DMC7 1-216).
T2 sequence: T1 sequence
In words: native gel or EMSA.

Another series addresses T3, MBP-RcsB (Escherichia coli (MG1655 strain), UniProt P0DMC7 1-216).
T3 sequence: T1 sequence
The experiment in a line: native gel or EMSA.

Series [3] concerns the molecule itself.

B1: gadA promoter -101 to +24 (dsDNA)
DNA 1: GTTTATATTATAAAAAGTCGTTTTTCTGCTTAGGATTTTGTTATTTAAATTAAGCCTGTAATGCCTTGCTTCCATTGCGGATAAATCCTACTTTTTTATTGCCTTCAAATAAATTTAAGGAGTTC
DNA 2: GAACTCCTTAAATTTATTTGAAGGCAATAAAAAAGTAGGATTTATCCGCAATGGAAGCAAGGCATTACAGGCTTAATTTAAATAACAAAATCCTAAGCAGAAAAACGACTTTTTATAATATAAAC
As for B1, in the series with (His)6-RcsB [1], the binding result is on record as “binds”.

B2: MBP-GadE (natural protein)
chain: MIFLMTKDSFLLQGFWQLKDNHEMIKINSLSEIKKVGNKPFKVIIDTYHNHILDEEAIKFLEKLDAERIIVLAPYHISKLKAKAPIYFVSRKESIKNLLEITYGKHLPHKNSQLCFSHNQFKIMQLILKNKNESNITSTLNISQQTLKIQKFNIMYKLKLRRMSDIVTLGITSYF
One may read the stoichiometry N as a count of units in the complex or per binding partner. In the case of B2, the binding result in the series with (His)6-RcsB [2] and with MBP-RcsB was “binds” each time. The “stoichiometry N” value in series [3] stood at 2.

B3: (His)6-GadE (natural protein)
chain: B2 chain
As to B3, the binding result in the series with (His)6-RcsB [2] and with MBP-RcsB was “binds” each time.
